From the supplement of paper PMC7125110
± gives the standard error. Variants at the floor of the assay were thinned out.

B1: glmS ribozyme (parent)
chain: AUAAAAGCGCCAGAACUACAGAAAUGUAGUUGACGAGGAGGAGGUUUAUCGAAUUUUCGGCGGAUGCCUCCAAA

How the values were obtained:
Conditions in all cases: with glucosamine-6-phosphate
[1] = variants of: B1; test: self-cleavage kobs at 640 uM GlcN6P; higher = faster cleavage; RNA array
Method in brief: (§1)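 Barcoded ribozyme variants, transcribed in situ by E. coli RNA polymerase on sequenced MiSeq chips, were followed via a hybridised Cy3 probe at 37 °C. Glucosamine-6-phosphate ranged from 40 μM to 10 mM in HEPES/KCl/Mg(OAc)2 buffer. kobs came from decay fits to per-tile medians, and kcat and KM from weighted Michaelis–Menten fits.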

[2] = variants of: B1; test: self-cleavage kobs at 2500 uM GlcN6P; higher = faster cleavage; RNA array
Method in brief: as §1

[3] = variants of: B1; test: self-cleavage kobs at 10000 uM GlcN6P; higher = faster cleavage; RNA array
Method in brief: as §1

Variant	self-cleavage kobs at 640 uM GlcN6P [1] [s⁻¹]	self-cleavage kobs at 2500 uM GlcN6P [2] [s⁻¹]	self-cleavage kobs at 10000 uM GlcN6P [3] [s⁻¹]
G9A C61G C68A	< 1e-05	< 1e-05	–
C10A A14C C67U C68A	0.0002 ± 7e-05	–	–
C11U C58A G62U	< 1e-05	–	–
C10U A14G U69A	4.59e-05 ± 2.2e-05	4.32e-05 ± 1.9e-05	–
A12G G26U G41U U47C C70G	0.000117 ± 5.2e-05	–	–
A12U A14C G29C	4.97e-05 ± 2e-05	0.000232 ± 7.7e-05	–
A12C G32U A64G C70U	< 1e-05	–	–
A12U G44U U45C C70G	< 1e-05	–	–
C11G G38A G43C	< 1e-05	< 1e-05	–
C11G A53C G59U U69A	< 1e-05	–	–
C11A G41A U49G G63U	< 1e-05	< 1e-05	–
G9U G44A A64C	< 1e-05	–	–
G9U G40U U47G U65A	< 1e-05	< 1e-05	–
A12C G13A A14G C16A U17C A18U A39G C50U A52G	< 1e-05	–	–
A12U A15U C34G U47A	< 1e-05	–	–
C11G U49A C71G	8.96e-05 ± 3.1e-05	–	–
C11A G40C C50U	< 1e-05	< 1e-05	–
A12C C16A A33U	< 1e-05	–	–

Variant	self-cleavage kobs at 640 uM GlcN6P [1] [s⁻¹]	self-cleavage kobs at 2500 uM GlcN6P [2] [s⁻¹]	self-cleavage kobs at 10000 uM GlcN6P [3] [s⁻¹]
C11G U45C C50G	< 1e-05	< 1e-05	–
G13A C50G U55A C67U	0.000168 ± 8.1e-05	7.15e-05 ± 2.6e-05	–
G9A G66U	< 1e-05	< 1e-05	–
C11A A33C A39G U45G	< 1e-05	< 1e-05	–
C11G A33U U54A U65G	< 1e-05	–	–
C11U G32U A33C	< 1e-05	< 1e-05	–
G9C U69G	< 1e-05	< 1e-05	< 1e-05
C11A A36G C50A A64C C68A	< 1e-05	–	–
A12U A36C C68G	0.000173 ± 5.8e-05	–	–
A12U U56C C71A	5.04e-05 ± 1.6e-05	0.00012 ± 4e-05	–
A12C C34G G40U	< 1e-05	< 1e-05	–
G9A G29U G41A U45A U47G C50U C70U	< 1e-05	–	–
C10U G43A C50A	< 1e-05	–	–
G9C G29A G62A	< 1e-05	–	–
A12G A33G G40C A52G U54A C58A	< 1e-05	–	–
C11A A12U C16U C70U	0.00025 ± 7.2e-05	0.000524 ± 0.00013	–
A12C G60C C67U	< 1e-05	–	–
